Molecular target: CFP-MtbDarG MD (mCerulean-fused macrodomain of Mycobacterium tuberculosis DNA ADP-ribosylglycohydrolase DarG) (M. tuberculosis) (UniProt O53605)
Assay: FRET or BRET

CFP-MtbDarG MD (mCerulean-fused macrodomain of Mycobacterium tuberculosis DNA ADP-ribosylglycohydrolase DarG) (M. tuberculosis), sequence (O53605 1-155): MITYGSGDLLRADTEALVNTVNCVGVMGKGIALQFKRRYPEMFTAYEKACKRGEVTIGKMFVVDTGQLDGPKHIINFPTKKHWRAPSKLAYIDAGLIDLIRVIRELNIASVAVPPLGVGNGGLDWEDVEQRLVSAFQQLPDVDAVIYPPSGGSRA
PARylated YFP-GAP (mCitrine fused to a C-terminal Gαi 10-mer peptide, poly-ADP-ribosylated), sequence (P63096 whole entry, looked up, the tested form may be a part): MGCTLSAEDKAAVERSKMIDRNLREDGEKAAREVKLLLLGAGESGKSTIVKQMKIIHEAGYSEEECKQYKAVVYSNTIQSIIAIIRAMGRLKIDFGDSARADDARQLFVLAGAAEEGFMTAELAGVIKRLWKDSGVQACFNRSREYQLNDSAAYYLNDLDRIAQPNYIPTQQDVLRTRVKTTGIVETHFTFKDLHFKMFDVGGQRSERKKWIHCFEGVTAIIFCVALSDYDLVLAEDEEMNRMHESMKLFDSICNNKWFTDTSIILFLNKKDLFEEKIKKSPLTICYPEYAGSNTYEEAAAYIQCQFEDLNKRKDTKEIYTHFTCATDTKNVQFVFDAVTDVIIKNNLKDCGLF

For “PARylated YFP-GAP (mCitrine fused to a C-terminal Gαi 10-mer peptide, poly-ADP-ribosylated) (from UniProt P63096 345-354)”, which Kd is on record?
The Kd was 316 nM.
